The values that follow come from US20260218128A1 (CARSGEN LIFE SCIENCES, published 2026).

In one test the target is T1, recombinant hMOG_his (human, UniProt Q16653 30-154, limits assumed).
T1 construct: also called human MOG antigen; not shown: His tag
T1 sequence: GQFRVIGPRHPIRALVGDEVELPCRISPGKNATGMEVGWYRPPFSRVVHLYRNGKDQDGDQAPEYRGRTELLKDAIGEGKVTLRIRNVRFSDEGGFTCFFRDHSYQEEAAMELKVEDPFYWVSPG
Put plainly: SPR, Biacore T200; MOG_His amine-coupled on CM5, Fab as analyte, 1:1 Langmuir fit.

Test [1] addresses T2, human MOG overexpressed on cells (293T-hMOG, K562-hMOG) (human, UniProt Q16653 30-247).
T2 construct: Cells overexpressing human MOG built by conventional techniques; also called K562-huMOG
T2 chain: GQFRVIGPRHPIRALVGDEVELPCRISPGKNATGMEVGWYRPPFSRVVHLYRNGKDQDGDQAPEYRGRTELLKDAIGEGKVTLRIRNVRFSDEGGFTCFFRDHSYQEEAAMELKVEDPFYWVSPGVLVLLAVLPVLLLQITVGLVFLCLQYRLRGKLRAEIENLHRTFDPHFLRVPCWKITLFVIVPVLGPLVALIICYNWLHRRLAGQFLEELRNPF
Put plainly: flow cytometry, Fab 5 µg/mL on 293T-hMOG cells, Anti-Fc-FITC secondary, MFI; controls 293T cells and NA (no antibody).

Test [2] has as its target T3, mouse MOG overexpressed on cells (293T-mMOG, K562-mMOG) (mouse, UniProt Q61885 29-246).
T3 construct: whole, on cells
T3 sequence (looked up): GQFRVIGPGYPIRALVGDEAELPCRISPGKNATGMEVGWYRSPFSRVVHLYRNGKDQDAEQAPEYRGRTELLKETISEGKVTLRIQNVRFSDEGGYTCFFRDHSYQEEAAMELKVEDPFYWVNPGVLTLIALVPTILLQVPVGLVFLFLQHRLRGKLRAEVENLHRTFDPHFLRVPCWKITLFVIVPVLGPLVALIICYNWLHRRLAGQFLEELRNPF
Put plainly: flow cytometry, Fab on 293T-mMOG cells, Anti-Fc-FITC secondary, MFI. Background: In flow cytometry, cells or beads pass a laser one at a time.

Test [3] concerns the target T3, mouse MOG overexpressed on cells …. The test is described as follows: flow cytometry, Fab 5 µg/mL on 293T-mMOG cells, Anti-Fc-FITC secondary, MFI; controls 293T cells and NA (no antibody).

B1: A3 (Fab form) (Fab, V domains shown)
VH: QVQLVQSGAEVKKPGSSVKVSCKASGGTFSSYAISWVRQAPGQGLEWMGGIIPIFGTANYAQKFQGRVTITADKSTSTAYMELSSLRSEDTAVYYCARGWYFFDAGFDYWGQGTTVTVSS
VL: DIQMTQSPSTLSASVGDRVTITCRASQSISSWLAWYQQKPGKAPKLLIYDASSLESGVPSRFSGSGSGTEFTLTISSLQPDDFATYYCQQYDSPLLTFGQGTKVEIKR
notes: Fully human anti-MOG clone tested in Fab form; also called antibody A3
B1: in the test with recombinant hMOG_his, the Kd – broadly, a measure of binding affinity in units of concentration – amounted to 5.92 nM; the koff (commonly a measure of how fast the partners let go of each other) turned out to be 0.00139 s⁻¹; the kon (usually the rate constant with which the complex forms) was 234000 M⁻¹ s⁻¹. For the same molecule, in test [1], the binding result is “binds”. The binding result in test [2] was “no binding”.

B2: A7 (Fab form) (Fab, V domains shown)
VH: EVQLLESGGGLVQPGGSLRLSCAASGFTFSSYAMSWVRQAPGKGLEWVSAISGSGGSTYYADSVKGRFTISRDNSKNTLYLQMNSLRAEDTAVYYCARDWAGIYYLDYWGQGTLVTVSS
VL: DIQMTQSPSTLSASVGDRVTITCRASQSISSWLAWYQQKPGKAPKLLIYDASSLESGVPSRFSGSGSGTEFTLTISSLQPDDFATYYCQQSDTYPRTFGQGTKVEIKR
notes: Fully human anti-MOG clone tested in Fab form; also called antibody A7
Turning to B2, in the test with recombinant hMOG_his, the Kd came out at 25.6 nM, the koff worked out at 0.00166 s⁻¹ and the on-rate (kon) was determined as 65000 M⁻¹ s⁻¹. Besides, the binding result in test [3] was “binds”. Also, in test [1], the binding result is reported as “binds”.

B3: A5 (Fab form) (Fab, V domains shown)
VH: QVQLVQSGAEVKKPGSSVKVSCKASGGTFSSYAISWVRQAPGQGLEWMGGIIPIFGTANYAQKFQGRVTITADKSTSTAYMELSSLRSEDTAVYYCARAPYSPTYYPFDYWGQGTTVTVSS
VL: DIQMTQSPSTLSASVGDRVTITCRASQSISSWLAWYQQKPGKAPKLLIYDASSLESGVPSRFSGSGSGTEFTLTISSLQPDDFATYYCQQYSMDHLTFGQGTKVEIKR
notes: Fully human anti-MOG clone tested in Fab form; also called antibody A5
B3: in the test with recombinant hMOG_his, the Kd was 27.6 nM, the koff amounted to 0.00278 s⁻¹ and the kon came to 101000 M⁻¹ s⁻¹. The binding result in test [3] is “binds”. Besides, the binding result in test [1] is “binds”.

B4: A4 (Fab form) (Fab, V domains shown)
VH: QVQLVQSGAEVKKPGSSVKVSCKASGGTFSSYAISWVRQAPGQGLEWMGGIIPIFGTANYAQKFQGRVTITADKSTSTAYMELSSLRSEDTAVYYCAREWYWPDNPFDYWGQGTTVTVSS
VL: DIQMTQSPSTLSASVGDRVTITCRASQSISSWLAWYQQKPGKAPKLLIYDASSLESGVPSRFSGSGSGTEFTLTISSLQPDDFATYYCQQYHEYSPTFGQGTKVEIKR
notes: Fully human anti-MOG clone tested in Fab form; also called antibody A4
With B4, in the test with recombinant hMOG_his, the dissociation constant (Kd) came out at 24 nM, the koff came to 0.000516 s⁻¹ and the kon was found to be 21500 M⁻¹ s⁻¹. The binding result in test [3] is listed as “binds”. For the same molecule, the binding result in test [1] is reported as “binds”.

B5: A1 (Fab form) (Fab, V domains shown)
VH: QVQLVQSGAEVKKPGSSVKVSCKASGGTFSSYAISWVRQAPGQGLEWMGGIIPIFGTANYAQKFQGRVTITADKSTSTAYMELSSLRSEDTAVYYCARGYFSEEAMDYWGQGTTVTVSS
VL: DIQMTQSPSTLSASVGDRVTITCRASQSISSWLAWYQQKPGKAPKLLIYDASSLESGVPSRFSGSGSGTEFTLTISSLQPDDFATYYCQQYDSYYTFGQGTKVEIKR
notes: Fully human anti-MOG clone tested in Fab form; also called antibody A1
For the molecule B5, in the test with recombinant hMOG_his, the equilibrium dissociation constant (Kd) was determined as 7.26 nM, the koff turned out to be 0.00193 s⁻¹ and the kon amounted to 266000 M⁻¹ s⁻¹. Besides, the binding result in test [1] is on record as “binds”. Moreover, in test [2], the binding result was “no binding”.

B6: A9 (Fab form) (Fab, V domains shown)
VH: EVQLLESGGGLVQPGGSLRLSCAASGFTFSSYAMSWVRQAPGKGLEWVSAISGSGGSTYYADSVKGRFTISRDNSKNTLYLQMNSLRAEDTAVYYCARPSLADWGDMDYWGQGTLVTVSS
VL: DIQMTQSPSTLSASVGDRVTITCRASQSISSWLAWYQQKPGKAPKLLIYDASSLESGVPSRFSGSGSGTEFTLTISSLQPDDFATYYCQQYDQYWTFGQGTKVEIKR
notes: also called antibody A9
Regarding B6, in the test with recombinant hMOG_his, the Kd came out at 2.28 nM, the koff is 0.000287 s⁻¹ and the kon turned out to be 125000 M⁻¹ s⁻¹. The binding result in test [1] is “binds”. In addition, in test [2], the binding result is reported as “no binding”.

B7: A12 (Fab form) (Fab, V domains shown)
VH: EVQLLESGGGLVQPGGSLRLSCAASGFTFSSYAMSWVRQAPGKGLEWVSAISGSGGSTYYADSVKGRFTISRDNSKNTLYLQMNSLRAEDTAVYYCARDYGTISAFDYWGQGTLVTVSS
VL: DIQMTQSPSTLSASVGDRVTITCRASQSISSWLAWYQQKPGKAPKLLIYDASSLESGVPSRFSGSGSGTEFTLTISSLQPDDFATYYCQQYGIPWTFGQGTKVEIKR
notes: Fully human anti-MOG clone tested in Fab form; also called antibody A12
Consider B7, for which, in the test with recombinant hMOG_his, the Kd came out at 6.83 nM, the koff came out at 0.00103 s⁻¹ and the kon was found to be 151000 M⁻¹ s⁻¹. The binding result in test [1] is reported as “binds”. Also, in test [2], the binding result is “no binding”.

B8: A11 (Fab form) (Fab, V domains shown)
VH: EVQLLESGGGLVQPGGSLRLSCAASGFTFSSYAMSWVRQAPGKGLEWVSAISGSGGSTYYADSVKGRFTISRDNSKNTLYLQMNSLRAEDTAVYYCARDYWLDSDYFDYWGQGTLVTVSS
VL: DIQMTQSPSTLSASVGDRVTITCRASQSISSWLAWYQQKPGKAPKLLIYDASSLESGVPSRFSGSGSGTEFTLTISSLQPDDFATYYCQQVYIYSTFGQGTKVEIKR
notes: Fully human anti-MOG clone tested in Fab form; also called antibody A11; All [sic]
Turning to B8, in the test with recombinant hMOG_his, the Kd was found to be 17.6 nM, the koff is 0.00432 s⁻¹ and the kon was found to be 246000 M⁻¹ s⁻¹. The binding result in test [1] is on record as “binds”. Moreover, in test [2], the binding result was “no binding”.
